Bridge positions count the residues as written; N and C are the ends. Square brackets hold non-standard residues; d marks the D form. Primed or numbered codes have the meaning given here. R8 = C=CCCCCCC[C@@](C)(N)C(=O)O; S5 = C=CCCC[C@](C)(N)C(=O)O; Cba′ = not defined here
Experiments:
[1] = molecular target: site-specific mono-biotinylated Mdm2 (human, biotin (site-specific, mono, by sortase-mediated ligation; site not stated)); test: SPR
[2] = molecular target: human Mdm2 (1–125) (human); test: ITC
Chain of human Mdm2 (1–125) (human) (chain, as listed by the source): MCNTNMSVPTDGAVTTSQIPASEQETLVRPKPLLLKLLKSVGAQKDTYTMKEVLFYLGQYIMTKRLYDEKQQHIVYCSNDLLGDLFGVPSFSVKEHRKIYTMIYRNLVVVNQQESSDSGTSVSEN

Chain of site-specific mono-biotinylated Mdm2 (human, biotin (site-specific, mono, by sortase-mediated ligation; site not stated)) (chain, as listed by the source): as above

Ac-LTF[R8]EYWQL[Cba′][S5]SAA-NH2 (staple 4-11; reading uncertain) [MP-292]
Kd [1]: 1.4 nM
Kd [2]: < 20 nM

From paper PMC6632053 (2019)
